In patent US20050079151A1, “Therapeutic agents for apoptosis-related diseases” (priority 1998, published 2005):

How the values were obtained:
[1] = system: G401 cell lines derived from Wilms tumor; test: Inhibitory effect on apoptosis induced by a carcinostatic (MTT method); assay type: cell-based; conditions: MK 1, 10 or 100 ng/mL + cisplatin 100 μM, 12 hour culture, compared with the cisplatin treated group
Method: Apoptosis was induced in G401 cell lines derived from Wilms tumor, infantile renal cancer, by a carcinostatic to examine the apoptosis-inhibitory effect of MK by the MTT method.
Five groups were prepared; the untreated group, the cisplatin (100 μM) treated group, and the MK (1, 10 or 100 ng/mL)+cisplatin treated groups.
G401 cells were suspended in the Dulbecco Modified Eagle Medium containing 10% fetal bovine serum (FBS) (10% FBS/DMEM) and seeded into a 96-well plate at 5000 cells/well. The plate was incubated in a CO2 incubator (37° C., 5% CO2; the same shall apply hereinbelow) so that the cells could attach to the plate.
The cells were washed with DMEM containing 0.1% FBS (0.1% FBS/DMEM) twice (hereafter, 0.1% FBS/DMEM was used for washing unless otherwise indicated), and cultured in 0.1% FBS/DMEM overnight. After culturing, MK was added to the MK treated groups at 1, 10 or 100 ng/ml. Each group was cultured for 6 hours. Six μl of 0.5 mg/ml cisplatin (100 μM) (Bristol-Myers Squib Company; Tokyo) was added to the cisplatin treated groups. Each group was cultured in 0.1% FBS/DMEM for 2 hours. […]
Fifteen μl of MTT reagent (5 mg/ml) (Wako Pure Chemical Laboratories; Osaka) were added to each well of the above-mentioned five groups and cultured for 4 hours. […] Absorbance (OD540-655) in each well was measured using a microplate reader.

Bcl-2 = test: Effect for enhancing Bcl-2 expression (Western blotting); assay type: cell-based; conditions: G401 cells
Method: The effect of MK on the expression of the Bcl-2 gene was examined. Six groups were prepared; the untreated group, the cisplatin (100 μM) treated group, the human MK (100 ng/ml) treated group, the human MK (100 ng/ml)+cisplatin (100 μM) group, the mouse MK (100 ng/ml) treated group, and the mouse MK (100 ng/ml)+cisplatin (100 μM) treated group.
G401 cells were seeded on a 3.5 cm-dish and cultured in 10% FBS/DMEM until the cells became almost confluent. The cells were washed twice and cultured in 0.1% FBS/DMEM overnight. Then, human MK or mouse MK (JP-A No. Hei 8-196293) was added to the MK treatment groups at 100 ng/ml and cultured for six hours. Cisplatin was added to the cisplatin treatment group to 100 μM, and cultured for 2 hours. After culturing, the cells were washed with 0.1% FBS/DMEM three times, cultured in 0.1% FBS/DMEM for 10 hours, and washed with PBS three times.
Two hundred microliters of buffer [1% Triton X-100, 150 mM NaCl, 10 mM Tris (pH 7.4), 1.0 mM EGTA, 0.5% NP-40, 1 mM PMSF, 0.1 μg/ml apiotinin, 40 nM Iewpeptin] were added to each dish and kept on ice for 20 min. The cells in each dish were detached by a scraper, and mixed 8 to 10 times using a syringe with a 26-gauge needle. The cells of each dish were centrifuged in a centrifuge tube at 4° C. at 12000 rpm for 30 min. The precipitated proteins were quantified (BCA Kit; PIERCE). The precipitate prepared from each dish (50 μg) was analyzed by Western blotting using anti-Bcl-2 monoclonal antibody (500×) (Dako; Denmark) and anti-mouse HRP antibody (Jackson Immuno Research) (FIG. 6). The band in each lane is numerically shown (FIG. 7).

B1: MK: midkine, a heparin-binding growth and differentiation factor; human MK protein (SEQ ID NO: 3; or recombinant, secreted by yeast) (protein, UniProt P21741 21-143, looked up)
Midkine: VAKKKDKVKKGGPGSECAEWAWGPCTPSSKDCGVGFREGTCGAQTQRIRCRVPCNWKKEFGADCKYKFENWGACDGGTGTKVRQGTLKKARYNAQCQETIRVTKPCTPKTKAKAKAKKGKGKD
numbers of the surviving cells (MTT, absorbance OD540-655) [1]: increased numbers of the surviving cells in an MK concentration-dependent manner | expression of Bcl-2 (Bcl-2; MK 100 ng/ml, no cisplatin): enhanced the expression of Bcl-2 | concentration showing the Bcl-2 enhancing effect (Bcl-2; data not shown): ≥ 10 ng/mL
